Patent US20110033462A1 (published 2011)
Where two headings read alike, the source gives them in different places.

B1: Fab E3 (Fab, V domains shown)
VH: EVQLLESGPGLVRPSQTLSLTCAVSGASISGPLSYWTWIRQSPGKKMEHIGSMFYSGNTYYNPSLKGRITMSVDTSRNQFSLNLNSVTVADTAVYFCARRRETELFGLPIDYWGQGILVTVSS
VL: ELTQSPATLSVSPGERATLSCRASERISSSYLSWYQQKPGQAPRLLMYGTSTRATGIPARFSGSGSGTDFTLTISSLQPEDFAVYFCQQDYNLPWTFGQGTKLEIKR
B2: humanized MAb E3 (antibody, V domains shown)
VH: EVQLLESGPGLVRPSQTLSLTCAVSGASISGPLSYWTWIRQSPGKKMEHIGSMFYSGNTYYNPSLKGRITMSVDTSRNQFSLNLNSVTVADTAVYFCARRRETELFGLPIDYWGQGILVTVSS
VL: ELTQSPATLSVSPGERATLSCRASERISSSYLSWYQQKPGQAPRLLMYGTSTRATGIPARFSGSGSGTDFTLTISSLQPEDFAVYFCQQDYNLPWTFGQGTKLEIKR
B3: Fab B2 (Fab, V domains shown)
VH: VQLLEQSGSEVKKPGASVKVSCKASGYPFTDYAMSWVRQAPGQGLEYMGWIFTNSGNPTYAPGFAGRFVFSLDISVNTAYLHIDSLKPEDTAVYYCARGIVTPAASGDYFDSWGQGTLVTVSS
VL: ELVLTQSPSSLSASIGDRVTITCRASQHISSWLAWYQQKPGKAPKPLIYAASSLKSGVPSRFSGSGSGTDFTLTISGLQPEDFATYYCQQYENSPVTFGGGTKVEIKR
B4: humanized MAb B2 (antibody, V domains shown)
VH: VQLLEQSGSEVKKPGASVKVSCKASGYPFTDYAMSWVRQAPGQGLEYMGWIFTNSGNPTYAPGFAGRFVFSLDISVNTAYLHIDSLKPEDTAVYYCARGIVTPAASGDYFDSWGQGTLVTVSS
VL: ELVLTQSPSSLSASIGDRVTITCRASQHISSWLAWYQQKPGKAPKPLIYAASSLKSGVPSRFSGSGSGTDFTLTISGLQPEDFATYYCQQYENSPVTFGGGTKVEIKR
B5: Fab A3 (Fab, V domains shown)
VH: EVQLLESGAEVKKPGSSVRISCKVSGTPYSSYVMNWVRQAPGQGLEWMGVFVPSLDRALYAQNFQGRLSITADTTTTYMELTSLKFEDTAVYYCATDFSVGWLRPLDRWGQGTLVTVSS
VL: ELQMTQSPSSLSASVGDRVTITCRASQGISNYLAWYQQKPGKAPKLLIYYASRLESGVPSRFSGSGSGTDYTLTISSLQPEDFATYYCQQYNSNPFTFGPGTKVDIKR
B6: humanized MAb A3 (antibody, V domains shown)
VH: EVQLLESGAEVKKPGSSVRISCKVSGTPYSSYVMNWVRQAPGQGLEWMGVFVPSLDRALYAQNFQGRLSITADTTTTYMELTSLKFEDTAVYYCATDFSVGWLRPLDRWGQGTLVTVSS
VL: ELQMTQSPSSLSASVGDRVTITCRASQGISNYLAWYQQKPGKAPKLLIYYASRLESGVPSRFSGSGSGTDYTLTISSLQPEDFATYYCQQYNSNPFTFGPGTKVDIKR

Columns and labels:
[1] = target: T1, recombinant JEV N-terminal 80% E protein (Japanese encephalitis virus strain …, UniProt P0DOH7 295-692); assay: SPR (Biacore 3000), recombinant E immobilized, Fab in flow
T1 chain: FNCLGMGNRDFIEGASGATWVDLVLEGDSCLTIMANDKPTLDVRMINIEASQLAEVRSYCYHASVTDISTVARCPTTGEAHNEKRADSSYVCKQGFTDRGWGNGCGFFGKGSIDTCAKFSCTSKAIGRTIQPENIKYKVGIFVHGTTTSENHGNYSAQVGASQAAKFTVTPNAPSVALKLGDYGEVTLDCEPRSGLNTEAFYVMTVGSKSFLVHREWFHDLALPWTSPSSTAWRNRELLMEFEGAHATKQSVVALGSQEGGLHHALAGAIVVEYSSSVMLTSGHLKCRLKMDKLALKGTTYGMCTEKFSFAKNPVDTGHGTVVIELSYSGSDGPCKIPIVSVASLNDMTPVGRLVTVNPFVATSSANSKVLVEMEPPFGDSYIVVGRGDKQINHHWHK

[2] = target: T2, DENV-3 (H87) virions (dengue virus type 3, strain H87, UniProt P27915 281-773); assay: ELISA, virion-coated plate
T2 construct: mature

[3] = target: T3, Langat virus (LGTV) strain TP 21 virions (Langat virus, strain TP 21, UniProt P29837 281-776); assay: ELISA, virion-coated plate
T3 construct: mature
T3 sequence: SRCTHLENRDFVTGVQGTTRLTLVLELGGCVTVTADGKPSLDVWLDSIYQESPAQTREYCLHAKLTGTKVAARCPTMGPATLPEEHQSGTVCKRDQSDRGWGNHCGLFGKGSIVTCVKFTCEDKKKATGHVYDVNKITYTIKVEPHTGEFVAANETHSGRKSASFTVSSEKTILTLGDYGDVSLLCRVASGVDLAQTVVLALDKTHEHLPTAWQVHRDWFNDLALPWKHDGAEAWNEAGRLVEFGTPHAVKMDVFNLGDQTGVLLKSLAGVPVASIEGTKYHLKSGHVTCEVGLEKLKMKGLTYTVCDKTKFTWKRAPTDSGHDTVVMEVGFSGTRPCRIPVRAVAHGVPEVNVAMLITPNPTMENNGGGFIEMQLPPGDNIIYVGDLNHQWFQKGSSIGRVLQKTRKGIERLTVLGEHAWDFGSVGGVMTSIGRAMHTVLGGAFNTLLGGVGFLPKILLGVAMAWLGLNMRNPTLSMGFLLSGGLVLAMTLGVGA

[4] = target: T4, DENV-4 (814669) virions (dengue virus type 4, strain 814669, UniProt P09866 280-774); assay: ELISA, virion-coated plate
T4 construct: mature

[5] = target: T5, JEV SA14-14-2 envelope (E) protein on virions (Japanese encephalitis virus strain …, UniProt P0DOH7 295-794); assay: cell-based or functional assay
T5 chain: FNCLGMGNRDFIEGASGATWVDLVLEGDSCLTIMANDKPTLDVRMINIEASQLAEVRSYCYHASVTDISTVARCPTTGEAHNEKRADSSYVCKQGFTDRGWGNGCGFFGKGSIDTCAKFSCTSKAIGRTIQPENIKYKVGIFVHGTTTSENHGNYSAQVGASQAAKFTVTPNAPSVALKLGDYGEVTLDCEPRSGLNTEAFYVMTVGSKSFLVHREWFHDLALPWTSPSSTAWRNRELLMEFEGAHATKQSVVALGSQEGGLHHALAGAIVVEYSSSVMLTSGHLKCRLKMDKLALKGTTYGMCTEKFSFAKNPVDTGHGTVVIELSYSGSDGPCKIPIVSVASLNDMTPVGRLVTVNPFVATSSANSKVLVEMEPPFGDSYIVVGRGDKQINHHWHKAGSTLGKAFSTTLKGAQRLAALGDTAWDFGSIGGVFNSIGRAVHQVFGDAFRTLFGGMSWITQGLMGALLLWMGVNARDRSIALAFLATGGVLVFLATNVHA

[6] = target: T5, JEV SA14-14-2 envelope (E) protein on …; assay: ELISA, virion-coated plate, Fab from ~100 µg/ml
[7] = target: T5, JEV SA14-14-2 envelope (E) protein on …; assay: cell-based or functional assay
[8] = target: T5, JEV SA14-14-2 envelope (E) protein on …; assay: ELISA on JEV virions (FIG. 4A), half maximum binding
[9] = target: T5, JEV SA14-14-2 envelope (E) protein on …; assay: cell-based or functional assay
[10] = target: T5, JEV SA14-14-2 envelope (E) protein on …; assay: ELISA on JEV virions captured by HMAF, concentration at half-maximal binding
[11] = target: T5, JEV SA14-14-2 envelope (E) protein on …; assay: cell-based or functional assay
[12] = target: JEV strain JE 1991 (genotype I) E protein on virus (Japanese encephalitis virus, strain JE …); assay: cell-based or functional assay
[13] = target: JEV strain JKT 9092 (genotype IV) E protein on virus (Japanese encephalitis virus, strain JKT …); assay: cell-based or functional assay
[14] = target: JEV strain JE B 1034/8 (genotype II) E protein on virus (Japanese encephalitis virus, strain JE …); assay: cell-based or functional assay
[15] = target: JEV strain Beijing (genotype III) E protein on virus (Japanese encephalitis virus, strain …); assay: cell-based or functional assay
[16] = target: T5, JEV SA14-14-2 envelope (E) protein on …; assay: cell-based or functional assay
[17] = target: T5, JEV SA14-14-2 envelope (E) protein on …; assay: cell-based or functional assay
[18] = target: T5, JEV SA14-14-2 envelope (E) protein on …; assay: ELISA on JEV virions
[19] = target: T1, recombinant JEV N-terminal 80% E protein; assay: SPR, recombinant E immobilized

T4 sequence (P09866 280-774 limits assumed): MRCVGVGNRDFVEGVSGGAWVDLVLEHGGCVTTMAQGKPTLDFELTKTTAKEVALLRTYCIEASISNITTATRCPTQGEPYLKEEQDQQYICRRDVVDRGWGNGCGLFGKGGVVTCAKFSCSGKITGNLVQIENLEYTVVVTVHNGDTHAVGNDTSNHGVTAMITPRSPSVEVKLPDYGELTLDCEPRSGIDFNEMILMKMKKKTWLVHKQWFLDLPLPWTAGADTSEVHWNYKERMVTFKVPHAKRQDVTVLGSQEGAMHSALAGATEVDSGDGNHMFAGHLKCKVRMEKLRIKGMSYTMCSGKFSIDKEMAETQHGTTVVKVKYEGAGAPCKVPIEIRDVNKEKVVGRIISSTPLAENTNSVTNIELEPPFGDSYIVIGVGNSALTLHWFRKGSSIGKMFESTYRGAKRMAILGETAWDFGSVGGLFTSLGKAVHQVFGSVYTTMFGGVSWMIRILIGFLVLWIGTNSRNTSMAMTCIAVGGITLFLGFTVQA

Binder	Kd [1] [nM]	koff [1] [s⁻¹]	kon [1] [M⁻¹ s⁻¹]	ELISA titer (1/log10 dilution) [2] [log10 reciprocal dilution]	binding result [2]	binding result [3]	ELISA titer (1/log10 dilution) [4] [log10 reciprocal dilution]	binding result [4]	PRNT50 titer [5] [nM]	ELISA titer (1/log10 dilution) [6] [log10 reciprocal dilution]	PRNT50 titer [7] [nM]	EC50 [8] [nM]	PRNT50 [9] [nM]	Kd [10] [nM]	PRNT50 [11] [µg/mL]	PRNT50 titer [12] [nM]	PRNT50 titer [13] [nM]	PRNT50 titer [14] [nM]	PRNT50 titer [15] [nM]	PRNT50 (µg/ml) of MAb 1 alone [16] [µg/mL]	further results
B1	0.35	3.6e-05	100000	< 1	no binding	no binding	< 1	no binding	84.9	4.2	84.9	~100	84.9	0.98	–	–	–	–	–	–	–
B2	–	–	–	–	–	–	–	–	–	–	0.93	–	–	0.31	0.09	0.21	0.36	0.14	0.71	0.09	occupancy of accessible antibody sites on the virion at neutralization [17]: 66%
B3	110	0.0046	42000	< 1	no binding	no binding	< 1	no binding	0.25	4.2	0.25	~0.5	0.25	0.28	–	–	–	–	–	–	Kd [18]: 0.15 nM; fold faster off-rate than Fab A3 or E3 [19]: > 120 fold; fold weaker Kd than Fab A3 or E3 [19]: > 150 fold
B4	–	–	–	–	–	–	–	–	–	–	0.03	–	–	0.08	0.005	0.02	2	0.02	0.02	0.005	occupancy of accessible antibody sites on the virion at neutralization [17]: ~28%
B5	0.72	2.8e-05	40000	< 1	no binding	no binding	< 1	no binding	2.55	4.7	2.55	~10	2.55	0.45	–	–	–	–	–	–	–
B6	–	–	–	–	–	–	–	–	–	–	0.2	–	–	0.15	0.04	0.04	0.07	0.04	0.2	0.04	occupancy of accessible antibody sites on the virion at neutralization [17]: 45%
